No end group written: not given here.
Key:
[1] = biological target: collagen II (thin coating on polystyrene tissue culture plate); assay: normalized fluorescence of PEG-fluorescein conjugated peptide on collagen II coated plate after washing; reference is scrambled collagen II binding peptide (FIG. 2I)
[2] = biological target: collagen I (thin coating on polystyrene tissue culture plate); assay: normalized fluorescence of PEG-fluorescein conjugated peptide on collagen I coated plate after washing; reference is scrambled collagen I binding peptide (FIG. 2D)

Row | Binder | normalized fluorescence intensity relative to scrambled peptide (times that of scrambled peptide) [1] | normalized fluorescence intensity relative to scrambled peptide (times that of scrambled peptide) [2]
1 | WYRGRL (also: conjugated to PEG-fluorescein, site not given here) [collagen II binding peptide conjugated to PEG-fluorescein] | 1.65 | –
2 | YSFYSDESLQ (also: conjugated to PEG-fluorescein, site not given here) [collagen I binding peptide conjugated to PEG-fluorescein] | – | 1.55

Source: patent US20190262387A1
